In the DeepSol protein solubility set:

Test: soluble on expression in E. coli; label from the status in PepcDB or PDB records

| Sequence | soluble on expression in E. coli |
| --- | --- |
| MSLLIVQKYGGTSMGSIERIHNVAQRVLESVTLGHQVVVVVSAMSGETDRLLEFGKNFSHNPNKREMDRIVSVGELVSSAALSMALERYGHRAISLSGKEAGILTSSHFQNAVIQSIDTKRITELLEKNYIVVIAGFQGADIQGETTTLGRGGSDLSAVALAGALKAHLCEIYTDVDGVYTTDPRIEEKAQKIAQISYDEMLELASMGAKVLLNRSVELAKKLSVKLVTRNSFNHSEGTLIVAEKDFKGERMETPIVSGIALDKNQARVSMEGVEDRPGIAAEIFGALAEYRINVDMIVQTIGRDGKTDLDFTIVKTQIEETKQALKPFLAQMDSIDYDENIAKVSIVGVGMKSHSGVASIAFKALAKDNINIMMISTSEIKISVLIDIKYAELAVRTLHAVYQLDQEGHHHHHH | not soluble |
| MGSDKIHHHHHHMKITKATDITLNDSCYLIYGNPGFGKTSVLKYIPGKTLVIDIDKSSKVLSGCENISIAEVDTHKIWDEWLNVVKELLKGAAEPFDTIVVDNVSELFRACLANLGREGKNHRVPSQADYQRVDFTILDSLRALLQLKKRIVFTAWETSDQWTDENGMIYNRAMPDIRSKILNNFLGLTDVVARLVKKTTEDGEEVRGFILQPSASVYAKNRLDDRKGCKVDELFTTELPS | not soluble |
| MGSDKIHHHHHHMLDNRIIDELKTIVGADNVATDRQDLICYGYDATQMEFLPDAVVHPGSPDEVSAVLKLANREQFPVYPRGAGSGFTGGALPKGGGIVLVVTRLNRILRIDTENLIAEVEPGVVTEQFQLEVEKLGLFYPPDPASLKFSTLGGNVAENAGGPRCVKYGVTRDFVMGLEVVLPSGEIIRTGGETYKGVVGYDLTRLLCGSEGTLGVITKIIFKLLPLPEAKKTMMTIFDSIDGAAKAVSTIIGNKIIPTTLEFMDHATLQCVEKRFNLGIPASGRAVLIIEVDGDRDLIEKQAARIQELIKPLGLVECKIAKDAAESEALWKVRRLVSPSLRDVNPDKFNEDIVVPRSKVPDVIRVIEKIQQKYAIPIVNFGHAGDGNIHVNIMIDKSVAGQEEKAHEAIAEVFQAALDLNGTMSGEHGVGLAKQPYIHLELKPAQVATMQAIKKALDPNNILNPGKMFPV | not soluble |
| MGSDKIHHHHHHMFVSPMLLHSIKEPFNDENYITELKFDGIRLILSKFDNQIKLYTRHNNEVTSKFPELMDLDIPDGTVLDGEVIVAASGGAPDFEAVMERFMSKKSAHNIVYCVFDVIYKDGQSIAAKPLTERKTVLNSLELDHPNVFVIEGTQGNGLAYFNLAKEKNLEGIVIKKANSPYEINKRSHNWLKVINYDYTEVLITGYTKKDIKFLLSYPDGTSAGFMEFMPHAERTKFHSMKQVKSESDEYVFIEPILCNVKHRFKTKHGKLRIPSFESWRV | not soluble |
| GPGSMKLLKFVNSDAPHTLADVQLRNQRLWFPCRHGNAAVAAKSWTLTAASPASVSGGYWLLDDDSQPICEITDVLLALPETAANAAGSSGTFAPRGVTDKDVDGIDFRSKMGRQMERERATYGATSKTATKSARTMMNAEEMTEKKNERMKREREAVAEAIEDNDASVMEPRKKERKHSKK | soluble |
| MRVEIVPIRPEFDAEICQIIQSVGAEFGAIGEGFGPSDAEVLAMSQYYREQDRSAYFVALLEGKVVGGGGIAPFAGHTDLCELKKLFLLPTSRGHGVGRALSEHCLNFAKQQGYTKCYLDTLSSMTQAIKLYQQLGFEHLTQPMAGTEHNGCDVWMLKSLN | not soluble |
| MAKEFQLTHIFKKVSEFKDGECRCGPLEEHFNVEWLLYINRKDDELAVFLGCNSLQGTEETTLSIYVELKFTLKNSIGTRVTKIAKCLLSNKSTESDFGLNKFIGWETLLKDYLIDDSIIIEAKIKITKMTGFPRKELRSFDESSEEYSDMIIAVGDRKFYVLKQLLASNSTHFQSLIPLDFEEMDCEGKSEITLPDINPSDFQCLLEVLYGEPAMDDENVEGILHSAHMYKMTKVIRNCEEFLSNKSEKPMRDKFKIAKQYQLESLKKSCLSKIQTIQDIKSAMAGDLSDMDATVVAALLEKSVTIEPPSKNGRPY | soluble |
| MEDLDFPICILKMNLQCCEDFPSRVKKLLRQVKGVYAITIDPVKGLILVCGTAEPSVLIKAVAKLGQSPQLYAYEKDPATAKTRFRTLLKRYATNKTQDKPSPPAPPVTATTPVETCPAGGETFRGFGYPGPTTMMQMPAFSLPPPRGLPGWLAPPTNPRLKYEEPKVTPRKPPAPYPFDYYENLGFPPSDSLFNYFSDDNPQPCSIM | soluble |
| MPKVISQKEFNILSRTKERVNFQIVYTKQRNGLHKAAKEYFFKDKDFTIIEDTPDTPDQPDGPCITKGPKEPGGPEEPNGPDKPEDPKDPDTPDVSEGPKEQGGQKDPGGPDDPSEGKQKVSKPDKYVTHRELDEKLKDFATKADFKRVEDKVDVLFELQKTQGEQIKVQGEQIKAQGKQIEQLTETVKVQGEQIRAQGEQIKAQSEEIKEIKVEQKAQGEQIKELQVEQKAQGKTLQLILKTLEKMNERLEKLESK | soluble |
| MFRGATAVNLDSKGRVAIPTRYRAEILEKNQGQMVCTVDIRQSCLLLYPLDEWEKIEQKLLALSNFDPTQRRLQRVMLGHATECEMDAQGRILLSGPLRQHAKLEKGLMLVGQLNKFEIWSDVEWHTQIAEDIEIGSSTDFAADALNDFSL | not soluble |
| MGHHHHHHSHMSPAPVIPSNTDYPGPHHFEVTFQQSSTAKSATWTYSPLLKKLYCQIAKTCPIQIKVSTPPPPGTAIRAMPVYKKAEHVTDVVKRCPNHELGRDFNEGQSAPASHLIRVEGNNLSQYVDDPVTGRQSVVVPYEPPQVGTEFTTILYNFMCNSSCVGGMNRRPILIIITLEMRDGQVLGRRSFEGRICACPGRDRKADEDHYREQQALNE | soluble |
| MSKEYHIRELIMRLARLDVSESWAEDLNPAQRAVLEYLSRANKFSRSPSHVAAFLGTTRGTISQTFKALLQKNYVTEKRSQSDKRVISFDLTQKGRALLARPRLLISGLESLDSSEQNALLSTLQSTLNSLLEQNKGQPFGLCKECRHFTSSNGGGYCNLLSEKLAPPETEQICHEQDPL | not soluble |
| TTCCPSIVARSNFNVCRLPGTPEALCATYTGCIIIPGATCPGDYAN | soluble |
| MQMSMLTRLHYFNCVVETGSISKASRIFDVQPSSISRQLTALEKELGVLLLKRTSRNIGLTEAGQTYYKYSQKIVSDLDEARCAVNDLQQKPKGNLKVSMAVGFAECCILPMIPTFTKLYPEINLELEMTGRVVDLVEENVDVAIRTGRLRDSNLIALKLTSNNFLLCASPQYITEHGTPKSPFNLTDFECIRYEYAGWRDWYLMNDKPTKLTIKSGLTVRSINGQKQLILNHAGLALMPKWSVINELDNGTLVQVLEQNIFSPYESMSSTYAIYLKRELISPKVRVFIDFIKDHIDYNS | not soluble |
| MSLESIKVVIVGGGQAGIAMGYYLVKEKVPFMILDANEQVGDSWRNRYDSLVLFTPRTYSQLPGFPMDGAPNGFPTKDEMASYLQQYANHFNLPMRHHTKVDRVTRQQNGRFHLKTTNGWIEAEKVVIATGAFQKPYLPPVLDSANNEMSQVHSSAYRNPAQIPGKSVLVVGGGNSGAQIAVELAKERNVTMAISHPFRFLPLKLLNKSMFSWLEWGGLLYAGIDTTRGRWFKKQKDPIFGKELKSLIKKGQIHLKPRVMNVQGKEVEFADHSRLSFDRIIWSTGFSPSYEWIDIDGVIATNGWPIHNRGITNIRGLYFLGLPWQYQRGSALVCGVGRDAEYLVPFIKHGDKEGHHHHHH | soluble |
| PLYLGLMSGTSIDGIDAALVRINANPITHCELIAAQTSAWDPNLRTTLLELSQGQNTASLDQLGWLDAQVGLAFATAANTLIAKTGIKHTQIRAIGSHGQTIRHRPHGDLPFTWQLGDAHRIAELTGITTVADFRRRDVAAGGQGAPLMPAFHLAILGSANENRAVLNLGGIANLTLIPMTGPVLGFDTGPANALLDSWYQRHHHETFDQSGNFAASGKINQKLLACLLDDPWFTLPPPKSTGREQFHLDWMTKQLEPTPPSPADVQATLLELTAVTVADALLRQQPKTTRLLICGGGAHNPVLMARLATHLPNVTVESIQTYGLNPDYLEAMGFAWLAAQTLDGQPSNLPSVTGARGLRLLGAIHPA | not soluble |
| MGSDKIHHHHHHMEKMTFGLIVGNREFFPDRLVEEGRERVIKVLEGMGYRVVTLSPSDTKLGAVETAKDAKKCAELFKEKAGEIDGIIVTLPNFGDEKGVAQAIRLSGLNVPVLVHAFPDDPEKLDLQNRRDSFCGKISVSNNLKQYGIEFSLTTLHTEDPESEVFKRDIEKFAAVCRIVKGMRNIKVGAIGARPSAFNTVRFSEKILERMSISVETVDLSEILHRVSNLKDDDERVRRKLEEIKKNYRLQIVPEEKILLMAKFGSVIDEWIEENDIKALAIQCWTSLEWNLGITPCTIMSLLNEKGKPAACEVDITGALSMYVLQLASGQPSAIVDWNNNYRDENETILFHCGNFPASIYEEKPEIKYADVIGTTVGKERAYGACAGKIKTSPFTFLRLTTDDNEGKVKAYVGEGQILDENPKTFGSRGVARIEKLQELMKYICENGFEHHVAINLSRVADAVKEALEKYLGIVVHKHNAEV | not soluble |
| MSLTIMPDIARMKRELAEIIAIRSENPPGGEADVAVYVERLLKDEGFSVSLTEYKPGRFNVEARIENGPGPVFAFNTHMDTVPAGDGWTTDAFILREDDGKLFGRGACDCKGPLIAMIEAMRMLAADRTAWSGTLLGVFVGDEEIASEGAKYYAAARPKIDFAVVGEPTSNTTYSAHKGSLRPVVRVHGVTAHSGTPHLGDNAIYRAGQLLTLVEAFHNNVVRKRTHPLVGEASLTVTRISGGHADNVLPGSCDLLLDRRMVPGESEDAVKQEFATLLKDAYDRFGVKAEIVDYKATTGSATETAADQSIVAASLEACRASGTSDPGPFGFQGGCDLVHFRSLGAQGTVIGPGSLSVAHKADEFVPLDEFVTCSVIYRDVARKMLRPNEGHHHHHH | soluble |
| GSVTVPEVIASEVISYAQEENLLRKYGTVIRTAGDVKYPILVKKAEANVNKKERTTDITETAIQFDEILLDPAEFDALATVTKKLLKMSGVPVEDIVVEELKKAYVRKEINYMFNGDDAGNENPGALAKKAVAFEKPVDLTAAGAGQKLYDALIEFKNTPVTEVMKKGRFIINRAALTAIEKMKTDDGFPLLRPFTQAEGGIGYQLVGYPVDWTDAADKKGEPDTPVLYFGDFSAFKIQEVIGALEIQKLVEKFSGKNQVGFQIYNLLDGQLVYSPFEPAVYRYEITKPVGG | not soluble |
| MSLGGDRFYDLISAVHKSIRGSAPDAALYWYARIITAGGDPLYVARRLLAIASEDIGNADPRAMQVALSAWDCFTRVGAAEGERAIAQAIVYLAVAPKSNAVYQAFNAAKALAKQAPDYDVPRHLTNAPTQLLKELGNHAEYRYAHDEPNAYAAGENYFPEPLKDTRFYFPGARGMEIKIKEKLDWLRNLDQQSENIREGHHHHHH | soluble |
| MAHHHHHHMEISSISETDKNAITRLLSSDLSRTVARHAIIVLHYFRTISDEDLPIDVLLGGCVLYAVKQRQASNANYFLRECLERVKESDIVGFELLLVQVVRHNVLLIETCLRSVFHEVLLENPVAGLDRERTIKVCLHLISFLYRTSWCLFPESAARGAFLVASEKCEIKLGKLSSAFDGPMVKHIAKYLRDQFWN | not soluble |
| MKEQILEKLKTVKYPGFEKDIVSFNFVKDIKIQDDGVFIDIEIVSANPEVANEIRKNTIEALSSLALKNIELNIITPKIPEEKSNSRSGKNIAPQVKNFIMVSSGKGGVGKSTTTVNLAISMAKMGKRVGILDADIYGPNIPRMLGETKTQPEVVGQRLKPILTHGVYMMSMGVLIEEGQGLMWRGAMIMKAIEQLLADVIWPELDVLFLDMPPGTGDAQITSAQSIPIAAGVCVSTPQTVSLDDSKRALDMFNKLHIPIAGVIENMSGFLCPDNGKEYDIFGKGTAEDMAKAYKSEVLAQIPIEMIVREGGDEGKPVSFYHPESVSSKRYLMAAEKIWSFIEKINNEGGADNSAIQPVMNGKSACSHLEHHHHHH | soluble |
